Test results: PMC11876641, “Ephrin A1 functions as a ligand of EGFR to promote EMT and metastasis in gastric cancer” (The EMBO Journal, 2025)

Target: T1, EGFR protein (UniProt P00533 25-645)
T1 construct: EGFR; source: bought: R&D Systems (1095-ER)
Test: pull-down; Fc fusion protein and its partner incubated in lysis buffer overnight at 4 °C; Protein A/G magnetic beads; both orientations (N-EGFR-Fc with Ephrin A1; Ephrin A1-Fc with EGFR protein)
Settings: both partners purified

binding result: binds
B1: Ephrin A1-Fc protein (Fc fusion, UniProt P20827 19-182, looked up)
chain: DRHTVFWNSSNPKFRNEDYTIHVQLNDYVDIICPHYEDHSVADAAMEQYILYLVEHEEYQLCQPQSKDQVRWQCNRPSAKHGPEKLSEKFQRFTPFTLGKEFKEGHSYYYISKPIHQHEDRCLRLKVTVSGKITHSPQAHDNPQEKRLAADDPEVRVLHSIGHS
notes: Ephrin A1; source: bought: R&D Systems (6417-A1)
